Literature values as cited in patent US11530434B2, “Cell mass evaluation method and device for analyzing state of cell mass” (HAMAMATSU PHOTONICS K.K., priority 2017, dated 2022).

Test system: cell morphology
Conditions: compared to the control state

B1: TGF-β2: reagent “TGF-β2” whose addition acts on the cell morphology (reported in Non-Patent Document 3) (protein, UniProt P61812 303-414, looked up)
Transforming growth factor …: ALDAAYCFRNVQDNCCLRPLYIDFKRDLGWKWIHEPKGYNANFCAGACPYLWSSDTQHSRVLSLYNTINPEASASPCCVSQDLEPLTILYYIGKTPKIEQLSNMIVKSCKCS
**Q.** Which “change of cell shape on addition of the reagent” value does the source give for B1 here?
**A.** The value was “makes the cell shape elongated”.
